This note sets out measurements from US9682130B2 (priority 2015, dated 2017).

The nature of series [1]: Jones Dye test for nasolacrimal duct blockage. It is filed as in vivo, NZW rabbit. Conditions: Day 21, all Ranpirnase concentrations. The protocol: The animals were also assayed on day 21 for nasolacrimal duct blockage by performing a Jones Dye test. On Day 21, a drop of sodium fluorescein was placed in each eye and the time to the dye appearing in the ipsilateral nostril was measured.

Series [2] has as its system Human Adenovirus 8 (Ad8 strain 13306). The series is described as follows: Virus yield reduction assay, Adenovirus 8. It is filed as cell-based. The protocol: (§1) The concentration of test compound required to inhibit CPE by 50% or reduce red uptake into cells by 50% (EC50) was calculated by regression analysis. The toxicity of the compound without virus present was similarly calculated using the uninfected wells treated with test compounds compared with untreated cell controls. The concentration of compound that would cause 50% cytotoxic effects in the absence of virus (CC50) was estimated by linear regression analysis. The selectivity index (SI) is the CC50 divided by EC50.
(§2) The virus yield reduction assay was used to determine actual virus amounts in the presence and absence of the test compound; this is the confirmatory assay for antiviral activity. […] Replicate wells of each compound concentration or control were pooled and frozen at −80° C. Samples were thawed and diluted by 10-fold serial dilutions. A 100 μL aliquot of each dilution was then plated onto 4 replicate wells of 96-well plates seeded with the applicable cells for each virus strain. Plates were incubated as noted above until viral CPE reached its endpoint, then each well was scored microscopically for the presence of viral CPE. The virus titer was determined based on the endpoint using the Reed-Muench method. […]

The test system of series [3] is Human Adenovirus 5 (AD5 strain NYS #98-1836). Briefly: Virus yield reduction assay, Adenovirus 5. Type of series: cell-based. As for the experimental part: as §1, §2
The test system is the same in series [4]. The series is described as follows: microbe, parasite or virus in culture. Type of series: cell-based. Conditions: Adenovirus 5, MA-104 cells. As for the experimental part:
To assess in vitro cytotoxicity, both a cytopathic effects of a virus (CPE) regression assay and a neutral red lysosomal uptake cell viability assay was performed essentially as described in, e.g., Repetto, et al., Neutral Red Uptake Assay for the Estimation of Cell Viability/Cytotoxicity, Nat. Protoc. 3: 1125-1131 (2008), the content of which is hereby incorporated by reference in its entirety. Ninety-six-well plates were seeded with MA-104 cells at 1×10^5 cells/mL and incubated overnight at 37° C. with 5% CO2. […] Each dilution was added to 5 wells of a 96-well plate with 80% to 100% confluent cells, and three wells of each dilution were then infected with one of the two test viruses. Two wells remained uninfected as controls for toxicity. Six wells per plate were set aside as uninfected, untreated cell controls, and six wells per plate were infected with no treatment as virus controls. […] Assay plates were incubated at 37° C. with 5% CO2. […] After CPE reduction assay was completed, a neutral red lysosomal uptake assay was conducted by filling each well with 0.011% (m/v) neutral red, a vital stain. The plates then were incubated for about 2 hours at 37° C. in the dark. The unincorporated neutral red solution was removed from the wells and the incorporated dye was then eluted by adding Sorensen's citrate-buffered ethanol. The plates were then read on a spectrophotometer at 540 nm to quantify the neutral red taken up by the healthy cells. The optical density of test wells was converted to percent of cell control and normalized to the virus controls.
as §1

B1: Ranpirnase (protein, UniProt P22069 1-104, looked up)
Protein P-30: QDWLTFQKKHITNTRDVDCDNIMSTNLFHCKDKNTFIYSRPEPVKAICKGIIASKNVLTTSEFYLSDCNVTSRPCKYKLKKSTNKFCVTCENQAPVHFVGVGSC
notes: amphibian ribonuclease originally isolated from oocytes and/or early embryos of Rana pipiens; pancreatic ribonuclease (RNase A) superfamily, about 12 kD
For the molecule B1, in series [1], the “Blocked nasolacrimal ducts, Jones Dye test” value is on record as “no Ranpirnase treated rabbits, regardless of concentration, resulted in blocked nasolacrimal ducts”. Besides, the “Yield Reduction Assay EC50” value in series [2] was found to be 25.1 mg/L; in series [3], 21.54 mg/L. Also, in series [4], the “Neutral Red Assay EC50” value was less than 100 mg/L.
